Data published in US20170160285A1 (VIB VZW, published 2017).

T1: Recombinant rat RIC8A (resistance to inhibitors of cholinesterase 8A) (rat, UniProt Q80ZG1 1-491, limits assumed)
T1 construct: In the FACS screening it was labelled at random on amines with DYLIGHT-405 NHS ester
T1 sequence (looked up): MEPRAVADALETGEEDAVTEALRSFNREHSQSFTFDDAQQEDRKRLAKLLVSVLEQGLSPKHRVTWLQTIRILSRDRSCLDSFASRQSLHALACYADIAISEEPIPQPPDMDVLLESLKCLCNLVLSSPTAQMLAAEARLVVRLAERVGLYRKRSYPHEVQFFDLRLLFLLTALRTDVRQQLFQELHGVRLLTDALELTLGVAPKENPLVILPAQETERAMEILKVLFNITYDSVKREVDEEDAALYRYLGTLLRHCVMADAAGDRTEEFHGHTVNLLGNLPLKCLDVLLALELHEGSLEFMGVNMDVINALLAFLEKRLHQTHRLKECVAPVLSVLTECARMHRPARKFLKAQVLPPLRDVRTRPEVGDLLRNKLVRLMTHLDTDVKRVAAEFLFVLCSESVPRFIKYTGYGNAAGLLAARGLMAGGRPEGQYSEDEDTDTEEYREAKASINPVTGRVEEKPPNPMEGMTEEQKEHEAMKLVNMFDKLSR

B1: NANOBODY CA8316 (VHH)
VHH: QLQLVESGGGLVQAGGSLRLSCAASGDTFSRYVMGWFRQAPGKERTFVVGISGGGGITRYADSVKGRFTISRDNAENTLYLEMNTLNPEDTAVYYCAATPADSAFMRNLRVYDYWGQGTQVTVSS
notes: Family 7; The same nanobody subcloned in pMESy4 and purified from E. coli is CA8332
B2: NANOBODY CA8322 (VHH)
VHH: QVQLVESEGGLVQPGGSLRLSCAASGFTFKYYYMNWVRQAPGKGLEWVSRINQLGGTSYGDSVKGRFTISRDNAKNTLYLQMNSLVPEDTAVYYCARCPAGAACKVEYDYRGQGTQVTVSS
notes: Family 16; also called CA8338 (pMESy4, E. coli)
B3: NANOBODY CA8418 (VHH)
VHH: QVQLVESGGGLVQAGGSLRLSCAASGRTFSNYAMGWFRQAPGKEREFVAALTWSGGNTVYRDSVKGRFIITRDNAKNAVYLQMNSLKPEDTAVYYCASDRRPYRYNIGTAEGEYNYWGQGTQVTVSS
notes: Family 23
B4: NANOBODY CA8318 (VHH)
VHH: QVQLVESGGGRVQAGDSLRLSCAASGRTFSPYAMGWFRQAPGKEREFVATINWSGDYTYYTDSVKGRFTTSRDNAKNTLYLEMNSLNAEDTAVYYCVARVGSPSSSDRAYQYWGQGTQVTVSS
notes: Family 8; also called CA8334 (pMESy4, E. coli)
B5: NANOBODY CA8419 (VHH)
VHH: QVQLVESGGGLVQPGGSLRLSCAASGFTFSRFVMNWARQAPGKGLEWVSTINSDGDVTSYADSVKGRFTISRDNAKNTLYLQMNSLKPEDTAVYYCGKGWFLNRRDESRGQGTQVTVSS
notes: Family 24
B6: NANOBODY CA8411 (VHH)
VHH: QVQLVESGGGLVQAGGSLRLSCAASARTFSRYGAGWFRQAPGKEREFVGAITWGGGRTKYADSVKGRFTISRDNSKNTVYLQMNSLKSEDTAVYYCASSSIEFGPLEDTYDYWGQGTQVTVSS
notes: Family 3
B7: NANOBODY CA8406 (VHH)
VHH: QVQLVESGGGLVQPGGSLRLSCAASTNIFNLRSMGWYRQAPGKERELVATITTYNTNYADSVKGRFTISRDNAKKTMYLQMNSLRPEDTAVYYCNLQNRYDAMDYWGKGTQVTVSS
notes: Family 11
B8: NANOBODY CA8403 (VHH)
VHH: QVQLVESGGGLVQAGGSLRLSCAASTRTFSNYVMGWFRQAPGKEREFVSAITSSGRGTSYADSVKGRFTISRDNAKNTVFLQMNSLKPEDTAVYYCAATAADYVLRSRPSVYSYWGQGTQVTVSS
notes: Family 20; also called CA8432 (pMESy4, E. coli)
B9: NANOBODY CA8405 (VHH)
VHH: QVQLVESGGGLVQDGGSLRLSCTASGRTFSNNAMGWFRQEPGREREFVAAIRWNGIANYADSVKGRFTISGDNAKNTVYLQMNSLKPDDTAVYYCAAAIRDGHNYYASDMRRYDYWGQGTQVTVSS
notes: Family 21; also called CA8433 (pMESy4, E. coli)
B10: NANOBODY CA8315 (VHH)
VHH: QVQLVESGGGLVQAGGSLRLSCAASGRTFSNYAMGWFRQTPGKEREFVAAITWSGGATYYADSVKGRFIISRDNTKNTVYLQMNSLKPEDTAVYYCAADRKPYSYYPSDFGSWGQGTQVTVSS
notes: Family 5; also called CA8331 (pMESy4, E. coli)
B11: NANOBODY CA8421 (VHH)
VHH: QVQLVESGGGLVQAGGSLRLSCAASGRTFSNYAMGWFRQAPGKEREFVAHITWTGGITYYSDSVKGRFIISRDNAKNTVNLQMNSLKAEDTAVYYCAADRVPYRFGVPSINEYDYWGQGTQVTVSS
notes: Family 26
B12: NANOBODY CA8314 (VHH)
VHH: QVQLVESGGGLVQAGDSLRLSCTASERAFSRYAMGWFRQAPGKERELVAAVSWAGGTTYYGDSVKGRFTISRDNAKITVYLQMNSLKPEDTAVYYCAAEAREFSVGSYYATEYDYWGQGTQVTVSS
notes: Family 4; also called CA8330 (pMESy4, E. coli)
B13: NANOBODY CA8319 (VHH)
VHH: QVQLVESGGGLVQAGGSLRLSCEASGRTSSSYVMGWFRRVSGKEREFVAAINPTGSSTYYADSVKGRFTISRDNSKNTVYVQMNGLKPEDTAVYYCAATRRDFYIIRNSRPQFDYWGQGTQVTVSS
notes: Family 10
B14: NANOBODY CA8312 (VHH)
VHH: QVQLVESGGGLVQAGGSKRLSCAASGRPFSNSAMGWFRQAPGKEREFVAAISWSGGNTYYADSVKGRFTISRDNAKNAVYLRMNSLEPEDTAVYYCAGDRQPYVYDLPTAQYQYDYWGQGTQVTVSS
notes: Family 1; also called CA8328 (pMESy4, E. coli)
B15: NANOBODY CA8408 (VHH)
VHH: QVQLVESGGGLVQAGDSLRLSCAASGLIVSNYAMGWFRQAPGKEREFVAYINWNGGVTYYTNSVKGRFTISRDNAKNTVYLQMNSLKPEDTAVYYCARTSRASVTTRVADFGYWGQGTQVTVSS
notes: Family 6; also called CA8109 (pMESy4, E. coli)
B16: NANOBODY CA8402 (VHH)
VHH: QVQLVESGGGLVQAGGSLRLSCAASGRTFSNYAMGWFRQAPGKEREFVAAISWSGGKTLYAESVKGRFTISRDNAKNTVYLQMNSLKPEDTAVYYCAATPADLTVVAGPPRIEMWYWGQGTQVTVSS
notes: Family 19; also called CA8431 (pMESy4, E. coli)
B17: NANOBODY CA8424 (VHH)
VHH: QVQLVESGGDLVQAGGSLRLSCAASGGIFIINNMGWYRQTPGNQRELVAEITRAGNSNYADSVKGRFTISRDNAKNTVYLQMNRLKPEDTAVYYCNFNVRYYGEYWGQGTQVTVSS
notes: Family 29; also called CA8444 (pMESy4, E. coli)

target: T2, Recombinant Gαi1 (heterotrimeric G protein alpha subunit i1) (rat, UniProt P10824 1-354); assay: FACS of yeast cells displaying the Nb, stained with 1 µM Gαi1(GDP)-DYLIGHT-488; black = clone (CA8316 per legend), grey = irrelevant Nb
T2 construct: In the FACS screening it was labelled at random on amines with DYLIGHT-488 NHS ester; The sentence reads 'Recombinant rat RIC8A (uniprot:Q80ZG1) and Gαi1 (uniprot:P10824)'
T2 sequence (P10824 whole entry, one chain of several): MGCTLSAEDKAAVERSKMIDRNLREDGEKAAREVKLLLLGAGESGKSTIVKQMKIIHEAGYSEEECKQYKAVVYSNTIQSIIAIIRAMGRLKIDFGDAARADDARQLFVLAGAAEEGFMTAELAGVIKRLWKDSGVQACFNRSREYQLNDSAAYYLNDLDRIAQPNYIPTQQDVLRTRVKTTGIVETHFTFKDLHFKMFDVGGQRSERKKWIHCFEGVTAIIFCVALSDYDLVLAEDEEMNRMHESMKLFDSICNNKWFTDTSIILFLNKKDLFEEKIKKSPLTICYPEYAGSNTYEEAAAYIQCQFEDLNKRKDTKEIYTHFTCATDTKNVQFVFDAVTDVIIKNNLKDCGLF

Binder | binding result
B1 | no binding (tested: 1 µM)

target: T2, Recombinant Gαi1 (heterotrimeric G …); assay: FACS of yeast cells displaying the Nb, stained with 1 µM Gαi1(GDP)-DYLIGHT-488; black = clone (CA8322 per legend), grey = irrelevant Nb

Binder | binding result
B2 | no binding (tested: 1 µM)

target: T2, Recombinant Gαi1 (heterotrimeric G …); assay: FACS on single yeast clone displaying the Nb; Gαi1-DYLIGHT-488

Binder | binding result
B3 | no binding (tested: 1 µM)
B4 | no binding (tested: 1 µM)
B5 | no binding (tested: 1 µM)
B6 | no binding (tested: 1 µM)
B7 | no binding (tested: 1 µM)
B8 | no binding (tested: 1 µM)
B9 | no binding (tested: 1 µM)
B10 | no binding (tested: 1 µM)
B11 | no binding (tested: 1 µM)
B12 | no binding (tested: 1 µM)
B13 | no binding (tested: 1 µM)
B14 | no binding (tested: 1 µM)
B15 | no binding (tested: 1 µM)
B16 | no binding (tested: 1 µM)
B17 | no binding (tested: 1 µM)

target: T1, Recombinant rat RIC8A (resistance to …); assay: FACS of yeast cells displaying the Nb, stained with 1 µM RIC8A-DYLIGHT-405; black = clone (CA8316 per legend), grey = irrelevant Nb

Binder | binding result
B1 | no binding (tested: 1 µM)

target: T1, Recombinant rat RIC8A (resistance to …); assay: FACS on single yeast clone displaying the Nb; RIC8A-DYLIGHT-405

Binder | binding result
B4 | no binding (tested: 1 µM)
B8 | no binding (tested: 1 µM)
B9 | no binding (tested: 1 µM)
B10 | no binding (tested: 1 µM)
B12 | no binding (tested: 1 µM)
B13 | no binding (tested: 1 µM)
B14 | no binding (tested: 1 µM)
B16 | no binding (tested: 1 µM)
